Assay results: patent US20110129459A1 (Chugai, published 2011)

How the values were obtained:
[1] = biological target: T1, rhNR10 (recombinant human NR10) (human, UniProt Q8NI17 20-519, limits assumed); experiment: SPR, Biacore T100; antibody captured on Protein A, rhNR10 as analyte
T1 construct: also called IL-31 receptor; IL31RA
T1 sequence: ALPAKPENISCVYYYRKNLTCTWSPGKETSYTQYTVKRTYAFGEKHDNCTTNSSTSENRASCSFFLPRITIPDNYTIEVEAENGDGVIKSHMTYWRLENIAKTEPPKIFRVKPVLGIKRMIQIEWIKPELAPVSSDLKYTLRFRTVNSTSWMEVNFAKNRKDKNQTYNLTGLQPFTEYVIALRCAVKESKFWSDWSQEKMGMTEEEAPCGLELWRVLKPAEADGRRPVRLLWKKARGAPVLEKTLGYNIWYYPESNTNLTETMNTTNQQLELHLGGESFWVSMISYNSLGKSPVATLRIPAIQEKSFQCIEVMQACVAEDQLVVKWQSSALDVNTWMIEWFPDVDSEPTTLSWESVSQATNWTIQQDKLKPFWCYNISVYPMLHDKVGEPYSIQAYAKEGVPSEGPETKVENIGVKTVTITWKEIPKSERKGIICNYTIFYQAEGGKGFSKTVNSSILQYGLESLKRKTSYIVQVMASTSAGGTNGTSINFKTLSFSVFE
Procedure: Kinetic analysis of the antigen-antibody reaction was carried out using Biacore T100 (GE Healthcare Biosciences). The antigen-antibody interaction was measured by immobilizing rec-Protein A (hereinafter Protein A) (ZYMED) onto a sensor chip, capturing an antibody on the immobilized Protein A, and then reacting the antigen as an analyte. Various concentrations of rhNR10 were used as the antigen. The kinetic parameters, association rate constant kₐ (1/Ms) and dissociation rate constant kd (1/s), were calculated from the sensorgrams obtained by the measurement. Then, KD (M) was determined based on the rate constants. Each parameter was determined using Biacore T100 Evaluation Software version 1.1 (GE Healthcare Biosciences).
The running buffer used was HBS-EP+. Each antibody was prepared at 0.25 μg/ml, or prepared so that about 100 RU would bind to Protein A. rhNR10 used as an analyte was prepared at 0, 38.5, 77.0, and 154 nM, or at 0, 19.25, and 77.01 nM using HBS-EP+. In the measurement, first, the antibody solution was captured on Protein A, and an analyte solution was reacted at a flow rate of 20 μL/min for three minutes. Then, the solution was switched to HBS-EP+, and the dissociation phase was measured for five minutes. After measurement of the dissociation phase, the sensor chip was regenerated by washing with 10 mM glycine-HCl (pH 1.5). The obtained sensorgrams were kinetically analyzed using the Biacore-specific data analysis software, Biacore T100 Evaluation Software Version 1.1.

[2] = biological target: T2, mhh (human/mouse chimeric NR10 extracellular domain, His/Myc tagged) (human/mouse chimera); experiment: Western blot of purified His/Myc-tagged NR10-ECD probed with H44M58L17, detected with AP-labeled goat anti-human IgG
T2 construct: C-terminal His-Myc tag
T2 chain: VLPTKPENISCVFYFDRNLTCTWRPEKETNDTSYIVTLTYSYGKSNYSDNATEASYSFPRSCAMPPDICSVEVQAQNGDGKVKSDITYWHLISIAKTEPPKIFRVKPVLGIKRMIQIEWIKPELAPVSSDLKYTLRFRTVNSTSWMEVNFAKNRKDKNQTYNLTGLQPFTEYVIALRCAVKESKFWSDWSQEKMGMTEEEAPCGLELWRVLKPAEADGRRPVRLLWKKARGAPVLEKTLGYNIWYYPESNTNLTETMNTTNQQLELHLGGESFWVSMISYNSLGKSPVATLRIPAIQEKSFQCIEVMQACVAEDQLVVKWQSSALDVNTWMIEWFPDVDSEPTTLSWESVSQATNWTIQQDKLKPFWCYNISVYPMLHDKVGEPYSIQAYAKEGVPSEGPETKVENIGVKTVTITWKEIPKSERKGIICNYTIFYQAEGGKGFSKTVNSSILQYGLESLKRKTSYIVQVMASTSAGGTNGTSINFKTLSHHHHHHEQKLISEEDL
Procedure: (§1) Each of the prepared human/mouse wild-type and chimeric antigens was electrophoresed at 0.5 μg/lane on three 4-20% polyacrylamide gels (Daiichi Pure Chemicals Co.). The proteins were electro-transferred onto PVDF membranes (Millipore) in a semi-dry blotting apparatus, and the membranes were blocked with TBS containing 5% skim milk. One membrane was incubated with 5 μg/ml of H44M58L17 (detection system for humanized anti-human NR10 antibody); another with 5 μg/ml of ND41 (detection system for mouse anti-human NR10 antibody); and the other one with anti-Myc antibody (SantaCruz, Cat.#sc-789) 500-times diluted with TBS containing 5% skim milk (detection system for Myc tag) at room temperature for one hour.
(§2) After washing three times with TBS containing 0.05% Tween™ 20, the secondary antibodies were incubated with the membranes. Alkaline phosphatase-labeled goat anti-human IgGγ (BIOSOURCE, Cat. #AHI0305) was used to detect humanized anti-human NR10 antibody; alkaline phosphatase-labeled goat anti-mouse IgG (SantaCruz, Cat. #sc-2008) was used to detect mouse anti-human NR10 antibody; and alkaline phosphatase-labeled goat anti-rabbit IgG (SantaCruz, Cat. #sc-2057) was used to detect Myc tag. The reaction was carried out at room temperature for one hour. […]

[3] = biological target: T3, mmh (human/mouse chimeric NR10 extracellular domain, His/Myc tagged) (human/mouse chimera); experiment: Western blotting, 0.5 µg antigen per lane
T3 construct: C-terminal His-Myc tag
T3 chain: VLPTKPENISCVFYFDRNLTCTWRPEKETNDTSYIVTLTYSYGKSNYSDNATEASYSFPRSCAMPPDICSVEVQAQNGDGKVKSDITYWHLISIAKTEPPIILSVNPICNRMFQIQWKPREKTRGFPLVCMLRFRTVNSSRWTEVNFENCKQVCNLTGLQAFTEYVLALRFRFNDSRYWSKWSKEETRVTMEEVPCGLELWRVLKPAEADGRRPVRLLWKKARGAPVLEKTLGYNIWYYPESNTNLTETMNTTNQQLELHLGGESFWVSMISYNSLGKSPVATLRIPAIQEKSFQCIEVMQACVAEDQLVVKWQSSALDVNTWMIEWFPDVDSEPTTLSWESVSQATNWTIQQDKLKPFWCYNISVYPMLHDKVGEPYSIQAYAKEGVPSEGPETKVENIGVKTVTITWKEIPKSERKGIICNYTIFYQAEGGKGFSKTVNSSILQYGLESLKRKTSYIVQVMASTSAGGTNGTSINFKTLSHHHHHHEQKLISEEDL
Procedure: as §1, §2

Kd [1]: 1.2 nM | koff [1]: 0.00072 s⁻¹ | kon [1]: 610000 M⁻¹ s⁻¹ | binding result [2]: no binding | binding result [3]: no binding (tested: 5 µg/ml)
B1: H44L17 (H44-M58 / L17) (antibody, V domains shown)
VH: QVQLVQSGAEVKKPGASVKVSCKASGYTFTGYIMNWVRQAPGQGLEWMGLINPYNGGTDYNPQFQDRVTITADKSTSTAYMELSSLRSEDTAVYYCARDGYDDGPYTLETWGQGTLVTVSS
VL: DIQMTQSPSSLSASVGDRVTITCQASEDIYSFVAWYQQKPGKAPKLLIYNAQTEAQGVPSRFSGSGSGTDFTLTISSLQPEDFATYYCQHHYDSPLTFGGGTKVEIKR
notes: also called humanized anti-human NR10 antibody
